Assay [1] concerns the target T1, ABCG5/G8 heterodimer (ATP-binding cassette transporters ABCG5 and ABCG8), human, full length (Homo sapiens, UniProt Q9H222;Q9H221).
T1 construct: ABCG5, human, full length; followed by a TEV protease cleavage site and a 12 His tag on the C-terminus; ABCG8, human, full length; In DDM micelles for SPR and the ATPase assay; in saposin A-based nanodiscs for cryo-EM; also called ABCG5/ABCG8; source: Pichia pastoris (ATUM-9016 strain), membranes extracted with DDM, purified (HisTrap, Superdex 200)
In words: SPR; Biacore T200, CM5 chip with goat anti-mouse IgG Fc antibody capturing the mouse anti-ABCG5/G8 mAbs (~100 Ru); ABCG5/G8 in DDM micelles, multicycle kinetics, 6 pM to 100 nM, 50 µL/min, 180 s association, 1800 s dissociation (the legend of Fig. 1 says instead that mAb was injected over immobilized ABCG5/G8). To be noted: both partners purified.

Assay [2] concerns the target T2, ABCG8 (ATP-binding cassette transporter G8), human, full length, half transporter of the ABCG5/G8 heterodimer (human, UniProt Q9H221).
T2 construct: ABCG8, human, full length; Same chain as the second chain of m1; written alone for the contacts seen in the structure; First residue seen in the cryo-EM structure is Phe28; source: Pichia pastoris (ATUM-9016 strain), expressed with ABCG5 and purified as the heterodimer (HisTrap, Superdex 200)
The assay is described as follows: cryo-EM structure; ternary complex of ABCG5/G8 with Fab 2E10 and Fab 11F4, purified by size exclusion, in saposin A-based nanodiscs; nucleotide-free, inward-facing; 3.3 Å. To be noted: both partners purified.

T1 sequence (Q9H222 whole entry, chain 1 of 2): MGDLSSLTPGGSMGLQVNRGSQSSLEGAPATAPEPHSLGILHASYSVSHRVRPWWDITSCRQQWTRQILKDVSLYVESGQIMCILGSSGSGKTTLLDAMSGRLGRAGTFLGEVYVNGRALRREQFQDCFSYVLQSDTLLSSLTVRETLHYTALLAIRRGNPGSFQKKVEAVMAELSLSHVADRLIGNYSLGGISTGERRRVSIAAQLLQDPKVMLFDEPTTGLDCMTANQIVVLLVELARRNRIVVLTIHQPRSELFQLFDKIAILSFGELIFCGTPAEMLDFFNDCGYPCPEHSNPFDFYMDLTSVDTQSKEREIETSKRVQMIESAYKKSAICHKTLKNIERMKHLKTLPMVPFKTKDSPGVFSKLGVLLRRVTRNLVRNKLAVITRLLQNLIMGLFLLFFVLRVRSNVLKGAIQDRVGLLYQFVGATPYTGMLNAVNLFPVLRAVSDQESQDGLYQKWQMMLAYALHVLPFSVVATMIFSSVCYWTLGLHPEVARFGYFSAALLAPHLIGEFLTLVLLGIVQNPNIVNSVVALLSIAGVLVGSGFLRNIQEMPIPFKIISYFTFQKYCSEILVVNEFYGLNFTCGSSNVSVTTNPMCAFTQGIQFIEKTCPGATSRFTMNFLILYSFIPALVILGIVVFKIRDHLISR
T1 sequence (Q9H221 whole entry, chain 2 of 2): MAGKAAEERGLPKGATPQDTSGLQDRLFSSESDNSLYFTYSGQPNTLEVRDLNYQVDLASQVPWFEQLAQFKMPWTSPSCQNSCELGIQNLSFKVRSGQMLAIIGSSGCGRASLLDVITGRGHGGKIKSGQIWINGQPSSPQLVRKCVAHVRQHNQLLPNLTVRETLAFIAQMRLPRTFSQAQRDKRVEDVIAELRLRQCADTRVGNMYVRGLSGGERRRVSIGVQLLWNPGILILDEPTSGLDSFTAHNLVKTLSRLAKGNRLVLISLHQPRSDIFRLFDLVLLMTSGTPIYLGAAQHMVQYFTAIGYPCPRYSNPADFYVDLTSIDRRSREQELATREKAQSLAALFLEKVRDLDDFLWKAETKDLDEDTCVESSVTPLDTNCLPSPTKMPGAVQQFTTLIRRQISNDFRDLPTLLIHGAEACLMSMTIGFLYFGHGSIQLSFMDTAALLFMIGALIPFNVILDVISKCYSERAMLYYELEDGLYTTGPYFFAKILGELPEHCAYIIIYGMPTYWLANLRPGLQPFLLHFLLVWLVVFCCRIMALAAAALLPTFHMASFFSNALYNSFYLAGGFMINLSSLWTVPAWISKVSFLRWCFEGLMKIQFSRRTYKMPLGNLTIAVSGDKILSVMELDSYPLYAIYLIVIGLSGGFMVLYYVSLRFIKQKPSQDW
T2 sequence (Q9H221 whole entry, one chain of several): as the sequence (Q9H221 whole entry, chain 2 of 2) above

B1: monoclonal antibody 2E10 against ABCG5/G8 (antibody, V domains shown)
VH: QVHLQQSGAELVRPGTSVKMSCKAAGYTFTYWWIGWLKQRPGHGLEWIGDFFPVSGHTNFNEKFRDKATLTADTSSSTAYMQLNSLTSEDSAIYYCARKQDSSGPLYAMDYWGQGTSVTVSS
VL: DIQMTQSSSYLSVSLGGRVTITCKASDHINNWLAWYQQKPGNAPRLLISAATSLETGVPSRFSGSGSGKDYTLSIISLQTEDVATYYCQQYWSTPFTFGSGTKLEIK
notes: the Fab part of the heavy chain is in PDB 7JR7 (as the heavy chain of m4); as the light chain of m4, in PDB 7JR7; Mouse IgG (captured by goat anti-mouse IgG Fc); also called mAb 2E10; source: produced at the antibody core facility at Oregon Health Science University
In turn, B1 showed a Kd in assay [1] of 0.11 nM.

B2: Fab fragment of monoclonal antibody 2E10 (Fab, V domains shown)
VH: QVHLQQSGAELVRPGTSVKMSCKAAGYTFTYWWIGWLKQRPGHGLEWIGDFFPVSGHTNFNEKFRDKATLTADTSSSTAYMQLNSLTSEDSAIYYCARKQDSSGPLYAMDYWGQGTSVTVSS
VL: DIQMTQSSSYLSVSLGGRVTITCKASDHINNWLAWYQQKPGNAPRLLISAATSLETGVPSRFSGSGSGKDYTLSIISLQTEDVATYYCQQYWSTPFTFGSGTKLEIK
notes: also called Fab 2E10; source: papain cleavage of mAb 2E10, purified by gel filtration chromatography
On to B2, for which the binding result in assay [2] is “binds”.

B3: monoclonal antibody 11F4 against ABCG5/G8 (antibody, V domains shown)
VH: DVQLQESGPGLVKPSQSLSLTCTITGYSITSDYAWNWIRQFPGNKLEWMGYISYSGTTYYNPSLKSRFSITRDTSRNQFFLQFNSVTTEDTGTYFCARMITTVYYFDYWGQGTTLTVSS
VL: QIVLTQSPTIMSASLGERVTMTCTASSSASSSYLHWYQQKPGSSPKLWIYSTSNLASGVPARFSGSGSGTSYSLTISNMEAEDAATYYCHQHHRSPPTFGAGTKLELK
notes: the Fab part of the heavy chain is in PDB 7JR7 (as the heavy chain of m5); as the light chain of m5, in PDB 7JR7; Mouse IgG (captured by goat anti-mouse IgG Fc); also called mAb 11F4; source: produced at the antibody core facility at Oregon Health Science University
B3 came in with a dissociation constant Kd in assay [1] of 0.12 nM.

B4: Fab fragment of monoclonal antibody 11F4 (Fab, V domains shown)
VH: DVQLQESGPGLVKPSQSLSLTCTITGYSITSDYAWNWIRQFPGNKLEWMGYISYSGTTYYNPSLKSRFSITRDTSRNQFFLQFNSVTTEDTGTYFCARMITTVYYFDYWGQGTTLTVSS
VL: QIVLTQSPTIMSASLGERVTMTCTASSSASSSYLHWYQQKPGSSPKLWIYSTSNLASGVPARFSGSGSGTSYSLTISNMEAEDAATYYCHQHHRSPPTFGAGTKLELK
notes: also called Fab 11F4; Fab11F4; source: papain cleavage of mAb 11F4, purified by gel filtration chromatography
Consider B4, for which, in assay [2], the binding result was “binds”.

The values above are taken from PMC8100176, “Cryo-EM structure of ABCG5/G8 in complex with modulating antibodies” (Communications Biology, 2021).
